Experimental data: publication PMC4433220

Experiments:
Dps [1] = molecular target: T1, Dps (Escherichia coli, UniProt P0ABT2 1-167); test: EMSA; 2-fold Dps excess: triplex significantly reduced; EMSA: 50 mM Tris-HCl pH 7.5, 0.1 mM EDTA, 50 mM NaCl, 37°C 30 min; footprinting: 50 mM Tris-HCl pH 8.0, 0.1 mM EDTA, 0.1 mM DTT, 10 mM MgCl2, 50 mM NaCl, 5 mg/m
Dps [2] = molecular target: T1, Dps; test: AFM; bound protein slightly shifted from center; EMSA: 50 mM Tris-HCl pH 7.5, 0.1 mM EDTA, 50 mM NaCl, 37°C 30 min; footprinting: 50 mM Tris-HCl pH 8.0, 0.1 mM EDTA, 0.1 mM DTT, 10 mM MgCl2, 50 mM NaCl, 5 mg/m

Row | Binder | binding result (Dps [1]) | binding result (Dps [2])
1 | Y5_Y6_Y7 (structured_DNA) DNA 1: CTTTTCCTCTACACCGTCTTTATATATCGAATTAAGAAGTCGCAATGAGTATTACTTTGTAAAT DNA 2: CAAGGGTAAACGAACCTTGCGCTTTCTTAAATATTCGATATATAAAGACGGTGTAGAGGAAAAG DNA 3: ATTTACAAAGTAATACTCATTGCGACTTCTTAATTTAAGAAAGCGCAAGGTTCGTTTACCCTTG | binds | –
2 | Y5_Y6_Y8 (structured_DNA) DNA 1: CTTTTCCTCTACACCGTCTTTATATATCGAATTAAGAAGTCGCAATGAGTATTACTTTGTAAAT DNA 2: CAAGGGTAAACGAACCTTGCGCTTTCTTAAATATTCGATATATAAAGACGGTGTAGAGGAAAAG DNA 3: ATTTACAAAGTAATACTCATTGCGACTTCTTAATTTAAGAAAGCGCAAGGAACGTTTACCCTTG | – | binds
